Data on three molecules can be found in article doi:10.1101/380220 (bioRxiv, 2019).

Like-named read-outs stand apart in the source and are kept apart here.

The target of test [1] is T1, GTP-loaded Ras1.G17V (1-172) (fission yeast (Schizosaccharomyces …, UniProt P08647 1-172, G17V)).
T1 sequence (looked up): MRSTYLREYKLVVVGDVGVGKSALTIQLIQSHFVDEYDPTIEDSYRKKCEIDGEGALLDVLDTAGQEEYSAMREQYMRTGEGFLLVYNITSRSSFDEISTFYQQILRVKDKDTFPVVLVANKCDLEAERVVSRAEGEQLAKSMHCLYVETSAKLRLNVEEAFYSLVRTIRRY
The test is described as follows: pull-down.

The target in test [2] is T1, GTP-loaded Ras1.G17V (1-172). Description: pull-down. This is another data set of the same source.

B1: GST-Scd1 (760-872) (domain or fragment, UniProt P40995 760-872, looked up)
chain: SSSTSTSLSVRNTTNVKIRLRLHEVSLVLVVAHDITFDELLAKVEHKIKLCGILKQAVPFRVRLKYVDEDGDFITITSDEDVLMAFETCTFELMDPVHNKGMDTVSLHVVVYF
As for B1, the binding result in test [1] is recorded as “binds”.

B2: Scd1 (760-872) fragment (domain or fragment, UniProt P40995 760-872, looked up)
chain: SSSTSTSLSVRNTTNVKIRLRLHEVSLVLVVAHDITFDELLAKVEHKIKLCGILKQAVPFRVRLKYVDEDGDFITITSDEDVLMAFETCTFELMDPVHNKGMDTVSLHVVVYF
On to B2, for which the binding result in test [2] is “binds”.

B3: GST-Byr2 (65-180) (domain or fragment, UniProt P28829 65-180, looked up)
chain: REFPRPCILRFIACNGQTRAVQSRGDYQKTLAIALKKFSLEDASKFIVCVSQSSRIKLITEEEFKQICFNSSSPERDRLIIVPKEKPCPSFEDLRRSWEIELAQPAALSSQSSLSP
Take B3: in test [1], the binding result is “binds”.
